From PMC2040504

Target: CXCR4 (human (endogenous in CEM)) (UniProt P61073)
Test: radioligand binding; competition: 0.25 nM 125I-CXCL12α and a range of concentrations of unlabelled CXCL12 (α, γ or γ-m1) on CEM cells (10^7 cells/ml), 100 µl PBS, 1 h, 4°C; cell-associated radioactivity counted

Sequence of UniProt P61073 (P61073 whole entry): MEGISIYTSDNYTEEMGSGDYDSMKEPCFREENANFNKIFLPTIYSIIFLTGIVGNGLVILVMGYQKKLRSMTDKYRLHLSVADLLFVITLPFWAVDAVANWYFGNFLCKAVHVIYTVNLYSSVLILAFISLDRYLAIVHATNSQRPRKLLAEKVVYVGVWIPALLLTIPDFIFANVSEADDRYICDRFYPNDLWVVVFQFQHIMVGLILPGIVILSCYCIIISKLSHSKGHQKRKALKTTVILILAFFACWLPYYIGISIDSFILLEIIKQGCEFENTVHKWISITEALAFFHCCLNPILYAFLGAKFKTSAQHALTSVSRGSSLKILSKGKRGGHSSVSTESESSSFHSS

CXCL12γ (ligand) gave an IC50 of 0.35 µM.
